Data set [1] concerns the molecule itself. The experiment in a line: native gel or EMSA; western blot of native gel of Drp1 tetramer in LPS-primed primary microglia, without and with 4 h of Aβ dimers.
Data set [2] concerns the molecule itself. The experiment in a line: native gel or EMSA; western blot of native gel of DRP1 tetramer in hippocampus of wt and 5xFAD mice (also with siTXNIP).

B1: Dynamin-Related Protein 1 (Drp1), endogenous in LPS-primed primary microglia (natural protein, UniProt Q8K1M6 1-736, looked up)
chain: MEALIPVINKLQDVFNTVGADIIQLPQIVVVGTQSSGKSSVLESLVGRDLLPRGTGVVTRRPLILQLVHVSPEDKRKTTGEENGVEAEEWGKFLHTKNKLYTDFDEIRQEIENETERISGNNKGVSPEPIHLKVFSPNVVNLTLVDLPGMTKVPVGDQPKDIELQIRELILRFISNPNSIILAVTAANTDMATSEALKISREVDPDGRRTLAVITKLDLMDAGTDAMDVLMGRVIPVKLGIIGVVNRSQLDINNKKSVTDSIRDEYAFLQKKYPSLANRNGTKYLARTLNRLLMHHIRDCLPELKTRINVLAAQYQSLLNSYGEPVDDKSATLLQLITKFATEYCNTIEGTAKYIETSELCGGARICYIFHETFGRTLESVDPLGGLNTIDILTAIRNATGPRPALFVPEVSFELLVKRQIKRLEEPSLRCVELVHEEMQRIIQHCSNYSTQELLRFPKLHDAIVEVVTCLLRKRLPVTNEMVHNLVAIELAYINTKHPDFADACGLMNNNIEEQRRNRLARELPSAGSRDKSSKVPSALAPASQEPPPAASAEADGKLIQDNRRETKNVPSAGGGIGDGGQEPTTGNWRGMLKTSKAEELLAEEKSKPIPIMPASPQKGHAVNLLDVPVPVARKLSAREQRDCEVIERLIKSYFLIVRKNIQDSVPKAVMHFLVNHVKDTLQSELVGQLYKSSLLDDLLTESEDMAQRRKEAADMLKALQGASQIIAEIRETHLW
notes: Dynamin-Related Protein 1 (Drp1), endogenous in primary microglia; Precipitated with an anti-Drp1 antibody; seen as tetramer on a native gel; Mouse is only surmised for the primary microglia; see the supplementary methods; source: endogenous, LPS-primed primary microglia lysate
A word on the stoichiometry N: it is a count of units in the complex or per binding partner. Consider B1, for which, in data set [1], the “stoichiometry N” value was 4.

B2: Dynamin-Related Protein 1 (Drp1), endogenous in mouse hippocampus (natural protein, UniProt Q8K1M6 1-736, looked up)
chain: MEALIPVINKLQDVFNTVGADIIQLPQIVVVGTQSSGKSSVLESLVGRDLLPRGTGVVTRRPLILQLVHVSPEDKRKTTGEENGVEAEEWGKFLHTKNKLYTDFDEIRQEIENETERISGNNKGVSPEPIHLKVFSPNVVNLTLVDLPGMTKVPVGDQPKDIELQIRELILRFISNPNSIILAVTAANTDMATSEALKISREVDPDGRRTLAVITKLDLMDAGTDAMDVLMGRVIPVKLGIIGVVNRSQLDINNKKSVTDSIRDEYAFLQKKYPSLANRNGTKYLARTLNRLLMHHIRDCLPELKTRINVLAAQYQSLLNSYGEPVDDKSATLLQLITKFATEYCNTIEGTAKYIETSELCGGARICYIFHETFGRTLESVDPLGGLNTIDILTAIRNATGPRPALFVPEVSFELLVKRQIKRLEEPSLRCVELVHEEMQRIIQHCSNYSTQELLRFPKLHDAIVEVVTCLLRKRLPVTNEMVHNLVAIELAYINTKHPDFADACGLMNNNIEEQRRNRLARELPSAGSRDKSSKVPSALAPASQEPPPAASAEADGKLIQDNRRETKNVPSAGGGIGDGGQEPTTGNWRGMLKTSKAEELLAEEKSKPIPIMPASPQKGHAVNLLDVPVPVARKLSAREQRDCEVIERLIKSYFLIVRKNIQDSVPKAVMHFLVNHVKDTLQSELVGQLYKSSLLDDLLTESEDMAQRRKEAADMLKALQGASQIIAEIRETHLW
notes: Dynamin-Related Protein 1 (Drp1), mouse, endogenous in the hippocampus of 5xFAD mice; Tetramer seen on a native gel; source: endogenous, hippocampus of 5xFAD mice
Turning to B2, in data set [2], the “stoichiometry N” value turned out to be 4.

These data come from publication PMC8980056, “RAGE-TXNIP axis drives inflammation in Alzheimer’s by targeting Aβ to mitochondria in microglia” (Cell Death & Disease, 2022).
